Blank lines part the entries; values can stand above or below the binder they belong to.
Tests used:
[1] = biological target: T1, Human glypican-3 on cells (Huh7, Hep3B, H446, Hep3B xenograft tissue) (human, UniProt P51654 25-554); test: flow cytometry on Hep3B cells, His Tag PE antibody
T1 construct: Endogenous GPC3 of human tumour cell lines; also called huGPC3 on cells; GPC3 receptor
Experimental: GPC3 AdxDC were evaluated by flow cytometry for binding to human Hep3B hepatocellular carcinoma cells grown in MEM with 10% FBS, and H446 small cell lung carcinoma cells grown in RPMI with 10% FBS. Cells were harvested using Cellstripper, a non-enzymatic cell dissociation solution from Mediatch (Corning: Manassas, VA 20109), Cat. #25-056-CL. Tumor cells (25,000/reaction) were suspended in FACS buffer (PBS+5% FBS+0.01% NaN₃) and mixed with a serial dilution of AdxDC for 1 hour on ice. Cells were washed three times with FACS buffer, and bound AdxDC was detected with His Tag PE-conjugated Antibody from R&D System, cat #IC050P, and read on a flow cytometer.

[2] = biological target: T1, Human glypican-3 on cells (Huh7, Hep3B, …); test: cell-based or functional assay
[3] = biological target: T2, Recombinant human glypican-3 (aa 1-559), His-tagged, R&D Systems (human, UniProt P51654 25-559); test: SPR KD, 37 C, Biacore T100
T2 construct: also called huGPC3; Hu GPC3-His
T2 sequence (P51654 other isoform, or with tags, fused parts or gaps): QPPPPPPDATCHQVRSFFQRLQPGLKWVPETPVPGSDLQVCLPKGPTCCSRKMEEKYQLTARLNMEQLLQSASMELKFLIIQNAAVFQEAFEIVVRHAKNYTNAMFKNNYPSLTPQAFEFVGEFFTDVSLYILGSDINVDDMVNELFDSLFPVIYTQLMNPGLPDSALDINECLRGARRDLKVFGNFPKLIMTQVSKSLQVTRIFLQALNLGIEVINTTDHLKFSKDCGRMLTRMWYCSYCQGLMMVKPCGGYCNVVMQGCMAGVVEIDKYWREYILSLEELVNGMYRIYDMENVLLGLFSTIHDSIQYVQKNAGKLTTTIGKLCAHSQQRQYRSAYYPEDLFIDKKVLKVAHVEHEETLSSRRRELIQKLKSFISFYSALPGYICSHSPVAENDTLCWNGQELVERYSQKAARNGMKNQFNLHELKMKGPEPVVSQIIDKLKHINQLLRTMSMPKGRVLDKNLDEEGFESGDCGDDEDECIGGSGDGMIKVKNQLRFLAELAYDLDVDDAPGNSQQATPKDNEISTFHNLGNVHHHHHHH
Experimental: For off-rate measurements, single 200 nM adnectin/AdxDC concentrations were injected using identical conditions. One 30s injection of 10 mM glycine pH 1.7 was used to remove bound adnectin and regenerate the GPC3 surfaces between assay cycles.
Rate constants kₐ (kₒₙ) and kd (koff) were derived from reference-subtracted sensorgrams fit to a 1:1 binding model in Biacore T100 Evaluation Software v2.0.4 (GE Healthcare). The affinity constant, KD was calculated from the ratio of rate constants kd/kₐ.

[4] = biological target: T2, Recombinant human glypican-3 (aa …); test: SPR
[5] = biological target: T1, Human glypican-3 on cells (Huh7, Hep3B, …); test: staining of Hep3B xenograft tissue

T1 sequence (P51654 25-554 limits assumed): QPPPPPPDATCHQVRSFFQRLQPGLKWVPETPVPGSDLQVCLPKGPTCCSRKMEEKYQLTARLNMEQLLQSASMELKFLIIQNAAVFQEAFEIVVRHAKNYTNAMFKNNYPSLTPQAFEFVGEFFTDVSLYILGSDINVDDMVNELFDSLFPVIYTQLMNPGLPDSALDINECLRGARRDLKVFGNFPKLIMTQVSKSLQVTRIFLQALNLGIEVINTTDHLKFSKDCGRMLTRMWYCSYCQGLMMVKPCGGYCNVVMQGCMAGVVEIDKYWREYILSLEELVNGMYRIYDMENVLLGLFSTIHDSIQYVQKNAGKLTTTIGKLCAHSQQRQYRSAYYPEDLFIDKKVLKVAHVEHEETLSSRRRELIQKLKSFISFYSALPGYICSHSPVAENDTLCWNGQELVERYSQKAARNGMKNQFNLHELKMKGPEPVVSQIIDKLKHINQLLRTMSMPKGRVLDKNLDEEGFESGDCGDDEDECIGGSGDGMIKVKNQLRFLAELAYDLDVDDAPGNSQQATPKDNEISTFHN

binding result [1]: no binding (tested: about 30 nM)
binding result [3]: no binding
B1: ADX_6093_A01 DAR1 AdxDC (non-binding control) (designed binder)
chain: MGVSDVPRDLEVVAATPTSLLISWDAPAVTVRYYRITYGETGGNSPVQEFTVPGSKSTATISGLKPGVDYTITVYAVTGRGESPASSKPISINYRTPCHHHHHH
modifications: tubulysin analog-linker (formula IV) on the C-terminal cysteine (DAR1)
notes: Control 10Fn3 with RGE in place of RGD; also called RGE AdxDC
AdxDC cell-killing IC50 [2]: > 25 nM

binding result [4]: no binding
binding result [5]: no binding (tested: 0.2 µg/ml)
B2: RGE-FITC (designed binder)
chain: B1 chain
modifications: fluorescein-5-maleimide on the C-terminal cysteine

Source: patent US20230312686A1 (Bristol-Myers Squibb, published 2023)
